Results published in patent US20240247073A1 (CONCEPT TO MEDICINE BIOTECH, published 2024).

Experiments:
[1] = biological target: T1, human CD40 on the cell surface (human, UniProt P25942 21-277); assay: flow cytometry on human monocyte-derived dendritic cells (CD11c+ gate), PE anti-human IgG Fc, MFI
T1 construct: whole, on cells; also called cell surface CD40; Jurkat-CD40 cells

[2] = biological target: T2, cynomolgus CD40-His protein (cynomolgus, UniProt G7PG38 21-193); assay: ELISA, coated cynomolgus CD40-His
T2 construct: Recombinant His-tagged protein; also called cyno CD40 antigen; not shown: His tag
Protocol: (§1) The binding affinity of these clones to cynomolgus CD40 was also tested. Microtiter plates were coated with cynomolgus CD40-His protein at 1.0 μg/ml in PBS, 100 μl/well at 4 °C overnight, then blocked with 150 μl/well of 1% BSA. Ten-fold dilutions of 42p155, 2p834, 2p931, 42p655, 2p1294, 2p957, 42p495, 3p78, 2p415, 2p442, 2p551, 2p80 and 2p1130 antibodies starting from 100 nM were added to each well and incubated for 1 hour at RT. The plates were washed with PBS/Tween and then incubated with Anti-Human IgG (H&L) (GOAT) Antibody Peroxidase Conjugated for 30 mins at RT. After washing, the plates were developed with TMB substrate and analyzed by spectrophotometer at OD 450 nm. As shown in FIG. 1B and Table 2, all these clones bound to cynomolgus CD40 at high activity, showing good cross-reactivity between human and cynomolgus CD40 proteins.

human CD40-His protein [3] = biological target: T3, human CD40-His protein (human, UniProt P25942 21-193); assay: SPR (Biacore T200), antibody captured on Protein A
T3 construct: Recombinant His-tagged protein; also called human CD40-his tag; recombinant CD40 protein; not shown: His tag
T3 sequence (P25942 21-193 limits assumed): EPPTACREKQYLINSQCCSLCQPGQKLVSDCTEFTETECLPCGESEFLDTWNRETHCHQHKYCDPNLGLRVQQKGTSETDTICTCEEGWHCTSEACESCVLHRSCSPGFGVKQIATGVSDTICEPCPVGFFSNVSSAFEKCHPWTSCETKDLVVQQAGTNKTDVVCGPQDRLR
Protocol: The binding of the humanized 42pl55 and 2p442 antibodies to recombinant human CD40 protein (human CD40-his tag) was tested by Biacore and Octet, respectively, using a capture method.
For humanized 42pl55 monoclonal antibodies, 42p155z2 and 42p155z3 were captured using Protein A chip. A serial dilution of human CD40-his tag protein was injected over captured antibody for 3 mins at a flow rate of 10 μl/min. The antigen was allowed to dissociate for 6 min. All the experiments were carried out on a Biacore T200. Data analysis was carried out using Biacore T200 evaluation software.

human CD40-His protein [4] = biological target: T3, human CD40-His protein; assay: ELISA, coated human CD40-His
Protocol: as §1, with “Briefly, microtiter” for “The binding affinity of these clones to cynomolgus CD40 was also tested. Microtiter”, “human” for “cynomolgus”, “4° C.” for “4 °C”, “nm.” for “nm. As shown in FIG. 1B and Table 2, all these clones bound to cynomolgus CD40 at high activity, showing good cross-reactivity between human and cynomolgus CD40 proteins.”

[5] = biological target: T1, human CD40 on the cell surface; assay: flow cytometry on Jurkat cells overexpressing human CD40, PE anti-human IgG, MFI
Protocol: To evaluate their binding affinity to cell surface CD40, chimeric anti-CD40 monospecific antibodies were tested in Jurkat cell lines that overexpressed CD40 by FACS. A total number of 1×10⁵ Jurkat-CD40 cells in each well were incubated with 10-fold serially diluted antibodies starting from 100 nM for 30 minutes at 4° C. in FACS buffer. After wash by FACS buffer, PE conjugated-anti-human IgG antibody was added to each well and incubated at 4 °C for 30 minutes. After wash, MFI of PE was evaluated by MACSQuant Analyzer 16.

T1 sequence (P25942 21-277): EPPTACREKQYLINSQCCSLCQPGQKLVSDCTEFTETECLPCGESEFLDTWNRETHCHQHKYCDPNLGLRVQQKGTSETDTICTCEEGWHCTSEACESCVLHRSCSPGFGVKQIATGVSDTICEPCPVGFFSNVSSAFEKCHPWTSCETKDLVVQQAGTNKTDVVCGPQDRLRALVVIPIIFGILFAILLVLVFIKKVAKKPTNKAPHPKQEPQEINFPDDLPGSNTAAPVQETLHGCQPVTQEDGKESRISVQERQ

B1: 2p834 anti-Claudin 18.2/CD40 bispecific antibody (bispecific antibody, part only; not given: Claudin 18.2 Fab, constant regions, linker, V domains shown, not shown: another chain or arm of the molecule; a dimerising Fc or GST; small tags and cut ends)
VHH: QSQLVESGGGLVQPGGSLRLSCAASGFAFRRYTMSWVRQAPGKGLEWVSTITHNGSITTYAESAQGRFTISRDNAKNTLYLQMNSLKPEDTAVYYCAQGGGSNYYRESWGQGTQVTVSS
EC50 (read off the curve) [1]: 1 nM

B2: 42p155 chimeric monospecific antibody (antibody, V domains shown)
VH: PSQLVESGGGLVQPGGSLRLSCAASGFAFRSYTMSWVRQAPGKGLEWVSTITHNGAITTYAESAQGRFTISRDNAKNTLYLQMNSLKPEDTAVYYCAQGGGSNYYRESWGQGTQVTVSS
notes: VHH-chimeric monospecific antibody (cAb), detected with anti-human IgG; also called 42pl55; not shown: human constant part (Fc) of the chimeric VHH antibody
EC50 [2]: 0.9 nM
Kd (human CD40-His protein [3]): 86.9 nM
koff (human CD40-His protein [3]): 0.0451 s⁻¹
kon (human CD40-His protein [3]): 519000 M⁻¹ s⁻¹
EC50 (human CD40-His protein [4]): 1.73 nM
EC50 (read off the curve) [5]: ~0.3 nM

B3: 2p1294 chimeric monospecific antibody (antibody, V domains shown)
VH: QVQLVESGGGLVQPGGSLRLSCAASGFSFRRYTMSWVRQAPGKGLEWVSAISDNGAITTYTESAQGRFTISRDNAKNTLYLQMNSLKPEDTAVYYCAQGGGSNYYRESWGQGTQVTVSS
notes: VHH-chimeric monospecific antibody (cAb), detected with anti-human IgG
EC50 (read off the curve) [5]: ~0.3 nM

B4: 2p957 chimeric monospecific antibody (antibody, V domains shown)
VH: PVQLVESGGGLVQPGGSLRLSCAASGFSFRNYIMSWVRQAPGKGLEWLSSITNSGGITSYTESVKGRFTISRDNAKNTLYLQMNSLKPEDTAVYYCAQGGSDNYYRGSWGQGTQVTVSS
notes: as for B3
EC50 (read off the curve) [5]: ~3 nM

B5: 42p495 chimeric monospecific antibody (antibody, V domains shown)
VH: PVQLVESGGNLVQPGGSLRLSCVAPGFTSRNSAMSWVRQAPGKGLEWVSTIYSGKSNTDYADSVKGRFTISTDNAKNTLYLHMNKLKSEDTAVYYCAKGAASDWYVPRDYWGQGTQVTVSS
notes: as for B3
EC50 (read off the curve) [5]: ~2 nM
